{"source": "patent US20220362357A1", "about": "“Synergistic Combinations of Amino Acid Depletion Agent Sensitizers (AADAS) and Amino Acid Depletion Agents (AADA), and Therapeutic Methods of Use Thereof” (STICHTING RADBOUD UNIVERSITAIR MEDISCH CENTRUM, priority 2018, published 2022)", "molecules": {"B1": {"name": "ASNase: native E. coli ASNase (NCBI WP_000394140.1), used in the in vitro studies (protein, UniProt P00805 23-348, looked up)", "L-asparaginase 2": "LPNITILATGGTIAGGGDSATKSNYTVGKVGVENLVNAVPQLKDIANVKGEQVVNIGSQDMNDNVWLTLAKKINTDCDKTDGFVITHGTDTMEETAYFLDLTVKCDKPVVMVGAMRPSTSMSADGPFNLYNAVVTAADKASANRGVLVVMNDTVLDGRDVTKTNTTDVATFKSVNYGPLGYIHNGKIDYQRTPARKHTSDTPFDVSKLNELPKVGIVYNYANASDLPAKALVDAGYDGIVSAGVGNGNLYKSVFDTLATAAKTGTAVVRSSRVPTGATTQDAEVDDAKYGFVASGTLNPQKARVLLQLALTQTKDPQQIQQIFNQY"}}, "tested_on": "Nalm6, Sem and Reh cells", "experiment": "ASNase and ibrutinib 7 day treatment of ALL cell lines: SubG1, PARP cleavage, amine staining, colony assay", "type": "cell-based, human", "conditions": "7 days; 1 IU/ml ASNase, ibrutinib 1 or 10 μM; FIGS. 4D, 4E, 4F & 4H", "experimental": "BTK inhibition. […] Cell viability was then measured by cell cycle distribution, (FIGS. 4C & 4D), and by blotting for the apoptosis marker PARP and calculating the ratio between cleaved and uncleaved PARP protein or (FIG. 4E) by amine staining (FIG. 4F)."}
{"molecule": "B1", "values": [{"measurement": "apoptotic killing efficacy", "result": "relatively small effect"}]}
